Laboratory results: article PMC9605714

Molecular target: SUMOylated Hsp82p (Hsp82p^K178C crosslinked with BMOE to Smt3p^Cys at position 178) (S. cerevisiae) (UniProt P02829)

apparent binding affinity (K app) from Aha1p titration into ATPase reactions of 1 uM Hsp82p form (PK/LDH regenerating system): 0.31 µM
B1: 6xHisMyc-tagged Aha1p (natural protein)
chain: MVVNNPNNWHWVDKNCIGWAKEYFKQKLVGVEAGSVKDKKYAKIKSVSSIEGDCEVNQRKGKVISLFDLKITVLIEGHVDSKDGSALPFEGSINVPEVAFDSEASSYQFDISIFKETSELSEAKPLIRSELLPKLRQIFQQFGKDLLATHGNDIQVPESQVKSNYTRGNQKSSFTEIKDSASKPKKNALPSSTSTSAPVSSTNKVPQNGSGNSTSIYLEPTFNVPSSELYETFLDKQRILAWTRSAQFFNSGPKLETKEKFELFGGNVISELVSCEKDKKLVFHWKLKDWSAPFNSTIEMTFHESQEFHETKLQVKWTGIPVGEEDRVRANFEEYYVRSIKLTFGFGAVL
